± gives the standard deviation of the averaged measurements.
tested on: ATP; assay: switch fluorescence ratio, 500 uM ATP over buffer (Cy3 cluster intensity, sum of 5 cycles each) (fold (ratio)); higher = stronger signal-on switching upon ATP binding; sequences stand for … in TCGTCGGCAGCGTCAGATGTGTATAAGAGACAGTTTTTTTTTTTTTTTTTTTTTTTTT…TC; details: aptamer strand: ATP DNA aptamer (quencher-CACCTGGGGGAGTATTGCGGAGGAAGG + anchor), 100 nM annealed; ATP concentration: 500 uM
How it was run: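 Clusters with intensities outside 100-1000 RFU were excluded. The remaining Cy3-labelled switching-strand clusters on a modified Illumina MiSeq flow-cell had been annealed to 100 nM quencher-labelled ATP aptamer and imaged in selection buffer, then after 15 min with 500 uM ATP at 22 °C, for five cycles separated by NaOH stripping and re-annealing. The fluorescence ratio, averaged per switch-domain sequence, is each cluster's summed target-cycle Cy3 intensity over its summed buffer-cycle Cy3 intensity.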
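Further: ATP exposure 15 min at 22 °C before imaging.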

Sequence | switch fluorescence ratio
TGTTTGTGAA | 0.9815 ± 0.0032
TGTTTGTGGT | 0.987 ± 0.023
TGTTTTAAGC | 1.03 ± 0.022
TGTTTTAGAC | 0.997 ± 0.035
TGTTTTCCCC | 1.02 ± 0.028
TGTTTTCGTG | 0.985 ± 0.015
TGTTTTGAAT | 1.006 ± 0.0096
TGTTTTGTAG | 1 ± 0.015
TGTTTTTAAC | 0.983 ± 0.015
TGTTTTTACC | 1.03 ± 0.059
TGTTTTTATC | 0.992 ± 0.013
TGTTTTTCTT | 1.01 ± 0.033
TGTTTTTTGG | 0.991 ± 0.033
TGTTTTTTGT | 0.992 ± 0.034
TTAAAAAGAG | 0.999 ± 0.042
TTAAAAAGGG | 0.995 ± 0.029
TTAAAAGAGC | 1.02 ± 0.035
TTAAAAGTTA | 1.03 ± 0.044
TTAAAATATT | 0.993 ± 0.023
TTAAAATGAG | 0.9972 ± 0.006
TTAAACGC | 1.03 ± 0.012
TTAAACGGAG | 1.034 ± 0.0052
TTAAACGTGT | 1.04 ± 0.03
TTAAACGTTA | 1.32 ± 0.44
TTAAACTTAG | 0.992 ± 0.03

Sequence | switch fluorescence ratio
TTAAAGAAAT | 1.05 ± 0.091
TTAAAGACGT | 1.51 ± 0.7
TTAAAGAGCG | 0.989 ± 0.04
TTAAAGAGGC | 0.993 ± 0.032
TTAAAGATGG | 1 ± 0.045
TTAAAGGATT | 1.01 ± 0.052
TTAAAGGGAT | 1.1 ± 0.16
TTAAAGGGC | 0.973 ± 0.08
TTAAAGGGGT | 1.05 ± 0.1
TTAAAGGTTA | 0.989 ± 0.013
TTAAAGTAGT | 1.19 ± 0.32
TTAAAGTCGA | 1.0194 ± 0.00069
TTAAAGTTGC | 1.02 ± 0.038
TTAAAGTTGT | 1.03 ± 0.07
TTAAATAGGT | 0.9956 ± 0.0088
TTAAATATTT | 0.992 ± 0.022
TTAAATCATA | 0.99742 ± 0.00093
TTAAATGCCT | 1.07 ± 0.028
TTAAATGGGT | 1 ± 0.033
TTAAATTACC | 1.05 ± 0.032
TTAAATTGGG | 1.01 ± 0.018
TTAACAGGAA | 1.024 ± 0.0095
TTAACATACG | 1.38 ± 0.042
TTAACCGGGG | 1.13 ± 0.16
TTAACCGGTA | 1.02 ± 0.0039

Sequence | switch fluorescence ratio
TTAACGAACG | 1.15 ± 0.083
TTAACGCGTT | 1.0063 ± 0.00089
TTAACGGGTT | 1.02 ± 0.037
TTAACGGTCT | 1.04 ± 0.027
TTAACTAGAT | 1.02 ± 0.016
TTAACTAGGC | 0.989 ± 0.054
TTAACTAGGG | 0.974 ± 0.037
TTAACTGGGG | 1.11 ± 0.13
TTAACTTCGG | 0.9712 ± 0.0059
TTAACTTTCT | 1.058 ± 0.0094
TTAAGAACCT | 1.31 ± 0.13
TTAAGACCAC | 1.01 ± 0.012
TTAAGACGGG | 1.002 ± 0.0017
TTAAGACGGT | 1.03 ± 0.031
TTAAGAGAGG | 1.01 ± 0.013
TTAAGCAATT | 1.36 ± 0.047
TTAAGCACAT | 1.202 ± 0.011
TTAAGCCCTT | 1.04 ± 0.036
TTAAGCGAGC | 0.9657 ± 0.0024
TTAAGCTGTT | 1.01 ± 0.023
TTAAGCTTAT | 1.012 ± 0.006
TTAAGGAGCA | 1.05 ± 0.044
TTAAGGAGGA | 0.981 ± 0.03
TTAAGGATGT | 1 ± 0.014
TTAAGGCTAA | 1.03 ± 0.038

Sequence | switch fluorescence ratio
TTAAGGGTGG | 0.991 ± 0.021
TTAAGGGTTT | 1.01 ± 0.047
TTAAGGTCGG | 1 ± 0.012
TTAAGGTGAG | 1.02 ± 0.021
TTAAGGTTTA | 1.02 ± 0.038
TTAAGTACG | 1.22 ± 0.09
TTAAGTAGGC | 1.16 ± 0.19
TTAAGTATTT | 0.997 ± 0.055
TTAAGTCCGG | 0.9629 ± 0.0071
TTAAGTGCTA | 0.9897 ± 0.0067
TTAAGTGTAG | 1 ± 0.021
TTAATAAACT | 1.03 ± 0.051
TTAATAAGAC | 1.04 ± 0.054
TTAATAATGG | 0.979 ± 0.026
TTAATAGTCA | 1 ± 0.014
TTAATAGTTT | 0.988 ± 0.04
TTAATATTCT | 0.969 ± 0.065
TTAATCTACT | 1.01 ± 0.015
TTAATCTCGG | 0.9954 ± 0.0016
TTAATCTTAA | 0.972 ± 0.018
TTAATCTTTT | 1.06 ± 0.14
TTAATGCCGT | 1.05 ± 0.076
TTAATGCTAA | 0.99 ± 0.036
TTAATGGCGG | 0.995 ± 0.02
TTAATGGGTG | 1.05 ± 0.015

Sequence | switch fluorescence ratio
TTAATGTATT | 0.995 ± 0.016
TTAATTATAT | 1.02 ± 0.018
TTAATTGGTT | 0.997 ± 0.031
TTAATTTGAA | 0.997 ± 0.013
TTAATTTGCA | 1.01 ± 0.04
TTAATTTGGA | 1.014 ± 0.0088
TTAATTTTA | 1.014 ± 0.0011
TTAATTTTGT | 1 ± 0.012
TTACAAGCGA | 1.03 ± 0.019
TTACAATTTT | 0.985 ± 0.019
TTACACAAAA | 1 ± 0.033
TTACACCTTT | 1.02 ± 0.0085
TTACAGCATT | 1.07 ± 0.067
TTACAGTTAA | 1.01 ± 0.021
TTACAGTTTT | 0.9442 ± 0.0036
TTACATGGTA | 0.977 ± 0.0024
TTACATTTGG | 0.9846 ± 0.0036
TTACCAGTCT | 1 ± 0.046
TTACCCCAGT | 1.21 ± 0.036
TTACCGGACT | 1.11 ± 0.042
TTACCGGCGC | 1.14 ± 0.18
TTACCGGGAT | 1.02 ± 0.031
TTACCGTGGG | 1.05 ± 0.029
TTACCTTAGT | 1.06 ± 0.034
TTACGATGGG | 0.97086 ± 0.00075

Sequence | switch fluorescence ratio
TTACGGATAA | 1.49 ± 0.67
TTACGGATGG | 1.03 ± 0.065
TTACGGGCTC | 0.985 ± 0.058
TTACGGGGCA | 1.04 ± 0.019
TTACGGTGAA | 1.07 ± 0.072
TTACGGTTGG | 0.995 ± 0.025
TTACGTAAGG | 1.23 ± 0.051
TTACGTGTTA | 0.995 ± 0.041
TTACGTTACG | 1.34 ± 0.047
TTACTAGTAT | 1 ± 0.025
TTACTATCTG | 1.01 ± 0.019
TTACTATGAA | 1.039 ± 0.0071
TTACTCAGCC | 1.12 ± 0.055
TTACTCGGTC | 0.99 ± 0.052
TTACTGATGG | 0.99 ± 0.033
TTACTTAAAA | 0.988 ± 0.04
TTACTTGAGA | 0.99 ± 0.032
TTACTTGTAC | 1.15 ± 0.025
TTACTTTGCT | 1.003 ± 0.0061
TTACTTTTCG | 1.03 ± 0.057
TTAGAAAACT | 1 ± 0.012
TTAGAAAATA | 1.12 ± 0.15
TTAGAAAGTC | 1.64 ± 0.93
TTAGAACTCC | 1.05 ± 0.036
TTAGAAGCTT | 1.03 ± 0.03

Sequence | switch fluorescence ratio
TTAGAAGTAT | 1.03 ± 0.046
TTAGAAGTGG | 0.988 ± 0.025
TTAGACGGCC | 1.03 ± 0.014
TTAGACGGGA | 1.026 ± 0.0043
TTAGACTTAT | 1.01 ± 0.021
TTAGAGACAG | 0.985 ± 0.049
TTAGAGCATT | 1 ± 0.026
TTAGAGGCCC | 1.01 ± 0.032
TTAGAGGGAC | 0.971 ± 0.014
TTAGAGGGGT | 0.992 ± 0.03
TTAGAGGTCT | 0.978 ± 0.011
TTAGAGTGGT | 1.01 ± 0.033
TTAGATATGG | 1.02 ± 0.026
TTAGATCTGC | 1.02 ± 0.083
TTAGATTGCG | 0.973 ± 0.026
TTAGATTTAA | 0.998 ± 0.013
TTAGATTTTA | 0.961 ± 0.034
TTAGCAGCGC | 1.01 ± 0.055
TTAGCATAGT | 0.98 ± 0.024
TTAGCCGGAC | 1.05 ± 0.013
TTAGCGCCGG | 1.03 ± 0.034
TTAGCGTAGG | 1.02 ± 0.0011
TTAGCGTTTT | 1.16 ± 0.25
TTAGCTTCTT | 1.07 ± 0.066
TTAGGAAA | 0.984 ± 0.044

Sequence | switch fluorescence ratio
TTAGGAACAC | 1.07 ± 0.12
TTAGGAACAT | 1.2 ± 0.23
TTAGGAAGAC | 2.27 ± 1.4
TTAGGAAGTT | 1 ± 0.033
TTAGGAGACT | 0.991 ± 0.029
TTAGGAGTGT | 0.9863 ± 0.0051
TTAGGATAT | 1.02 ± 0.041
TTAGGATTCG | 1.02 ± 0.039
TTAGGATTTT | 1.01 ± 0.011
TTAGGCAGGG | 1 ± 0.016
TTAGGCAGGT | 0.994 ± 0.048
TTAGGCCCTT | 1.02 ± 0.011
TTAGGCCTTT | 0.972 ± 0.048
TTAGGCGCCG | 0.994 ± 0.054
TTAGGCGGGT | 1.01 ± 0.064
TTAGGCGGTT | 1 ± 0.017
TTAGGCTAAA | 1.002 ± 0.0074
TTAGGGATCT | 0.9904 ± 0.0042
TTAGGGCTTA | 0.995 ± 0.013
TTAGGGGAAA | 1.03 ± 0.066
TTAGGGGACA | 1.04 ± 0.025
TTAGGGGGAC | 1 ± 0.041
TTAGGGGGAT | 0.988 ± 0.019
TTAGGGGGCA | 1.01 ± 0.03
TTAGGGGGCG | 1.03 ± 0.045
